Assay results: patent publication US20260137799A1, “ANTI-MUC1* ANTIBODY DRUG COMPLEXES AND USES THEREOF” (Minerva Biotechnologies Corporation, priority 2023, published 2026)

Assays:
[1] = target: PSMGFR peptide (SEQ ID NO: 1) (Homo sapiens, UniProt P15941); experiment: ELISA binding to PSMGFR peptide
From the text: MUC1* is a cancer-specific antigen produced by proteolytic cleavage of the extracellular domain of MUC1. The extracellular domain of MUC1* comprises about 45 amino acids. Monoclonal antibodies generated against the PSMGFR peptide (SEQ ID NO: 1) bind to MUC1*, as described in WO 2020/146902.
Cancer selective anti-MUC1* antibodies bind to a membrane proximal conformational epitope within the MUC1* extracellular domain, as described in WO 2020/146902.
(§1) The 3C2B1 epitope was mapped more precisely with additional PSMGFR peptide variants (FIGS. 2A, 2B).

[2] = system: H1975 lung cancer cells (H1975-wt); experiment: Antibody internalization (pHrodo Deep Red), H1975-wt; assay type: cell-based, human; settings: H1975-wt cells
Procedure: (§2) Antibodies C2 and 3C2B1 were tested for their ability to be internalized by H1975 lung cancer cells (H1975-wt) and H1975 cells that were engineered to express high levels of a recombinant MUC1* polypeptide with a 45 amino acid extracellular domain (H1975-MUC1*45). In contrast to the T47D breast cancer cells, H1975-wt cells internalized 3C2B1 faster than they internalized C2 (FIGS. 4A1-4A28, 4C1-4C28 and 4E). Two (2) hours post incubation with H1975-wt cells, […] the cells had internalized C2. […] Similar to the T47D cells, MUC1*45 expression increased the internalization rate of C2 and decreased the internalization rate of 3C2B1 (FIGS. 4B1-4B28, 4D1-4D28 and 4E).
(§3) Antibodies C2 and 3C2B1 were coupled to a pH sensitive fluorophore using the pHrodo Deep Red TFP Ester kit (Thermo cat #P35356), according to manufacturer instructions. Cancer cells were seeded at ˜50,000 cells/well onto μ-Slide 8-well tissue culture-treated, chambered coverslip wells (Ibidi 80806) in their recommended media with 10% FBS. Cells were cultured for 48 hours. Slides were transferred into microscope chamber (37° C.—5% CO2) and equilibrated for ˜30 minutes. The pHrodo Deep Red coupled antibody was then diluted to a concentration of 200 to 300 μg/mL into pre-warmed media supplemented with 10% FBS. Media was removed from the chamber slides and the diluted antibodies were separately added. Fluorescent (655 nm) and phase contrast images at were collected every 10 min for 12h or 16 h with a Leica Thunder Live Cell 3D microscope.
(§4) Internalization of the fluorescently labeled antibodies was quantified as follows. Images were imported into ImageJ. The selection tool was used to draw a region of interest (ROI) on the image. The integrated pixel density (mean gray-scale value×area) was then measured by the ImageJ software. Positively-stained cells were manually counted and the integrated pixel density was divided by the number of positive cells to yield “Pixel Intensity per positive cell”.

T47D-MUC1*45 cells = experiment: Antibody internalization (pHrodo Deep Red), T47D-MUC1*45; assay type: cell-based, human
Procedure: Antibodies C2 and 3C2B1 were tested for their ability to be internalized by T47D breast cancer cells (T47D-wt) or T47D cells that were engineered to express high levels of a recombinant MUC1* polypeptide with a 45 amino acid extracellular domain (T47D-MUC1*45), as described in WO2010042562 and WO2010042891. […] C2 internalization was detected within 2.5 hours in T47D-wt cells (FIGS. 3A-3F) and was increased by MUC1*45 expression (FIGS. 3G-3L). […] Unexpectedly, MUC1*45 expression inhibited 3C2B1 internalization (FIG. 3S-3X).
Antibodies C2 and 3C2B1 were coupled to a pH sensitive fluorophore using the pHrodo Deep Red TFP Ester kit (Thermo cat #P35356), according to manufacturer instructions. Cancer cells were seeded at ˜50,000 cells/well onto μ-Slide 8-well tissue culture-treated, chambered coverslip wells (Ibidi 80806) in their recommended media with 10% FBS. Cells were cultured for 48 hours. Slides were transferred into microscope chamber (37° C.—5% CO2) and equilibrated for ˜30 minutes. […]
(§5) Internalization of the fluorescently labeled antibodies was quantified as follows. […] The integrated pixel density (mean gray-scale value×area) was then measured by the ImageJ software. Positively-stained cells were manually counted and the integrated pixel density was divided by the number of positive cells to yield “Pixel Intensity per positive cell”.

[3] = target: PSMGFR N-30 (SEQ ID NO: 157) (Homo sapiens, UniProt P15941); experiment: Epitope mapping, binding to PSMGFR N-30 peptide
From the text: (§6) FIG. 2B quantifies binding of the 3C2B1 anti-MUC1* antibody to the peptides of FIG. 2A.
as §1

[4] = system: HPAFII pancreatic cancer cells; experiment: Antibody internalization (pHrodo Deep Red), HPAFII; assay type: cell-based, human
Procedure: Internalization of antibody 3C2B1 into HPAFII pancreatic cancer cells (FIGS. 5A-5G) and OE19 esophageal cancer cells (FIGS. 5H-5N) was detectable after 8 hours and nearly complete at 16 hours. The results are quantified in FIG. 5O.
as §3, with “Fluorescent (655 nm) and phase contrast images at were collected every 10 min for 12h or 16 h with a Leica Thunder Live Cell 3D microscope.” left out
as §5

lung cancer specimens = experiment: IHC of tissue microarray, lung cancer; assay type: binding, human; settings: 108 specimens, antibodies at 15 μg/mL
From the text: (§7) Tissue microarrays are typically made up of hundreds of tissue specimens, where each specimen in the array comes from a different patient. The breast cancer array contained patient specimens of all types of invasive breast cancers, including less common forms such as carcinomas with medullary features and papillary carcinomas. The lung cancer array contained specimens from patients diagnosed with squamous cell carcinoma, adenocarcinoma, mucinous adenocarcinoma, adenosquamous carcinoma and large cell carcinoma. The pancreatic cancer tissue microarray contained specimens from patients with ductal adenocarcinomas.
Of the 108 lung cancer specimens, a total of 61 stained positive with C2, 3C2B1, or both. […] The converse, C2 staining better than 3C2B1, was true in only 5 of the 108 specimens, and these specimens stained weakly with both antibodies. A total of 37 specimens were stained essentially the same with 3C2B1 and C2 antibody.
(§8) Cancerous tissue arrays were purchased from Tissue Array (Derwood, MD). After deparaffinization, antigen retrieval (pH 6.0) was performed for 10 min. The sections incubated in blocking buffer (10% normal goat serum and 5% BSA in TBS) at room temperature for 1 hr before incubating in either C2 or 3C2B1 in 1% BSA-TBS overnight at 4° C. In this particular assay, both antibodies were used at a concentration of 15 μg/mL. […]

[5] = target: PSMGFR N-19 C-5 (SEQ ID NO: 159) (Homo sapiens, UniProt P15941); experiment: Epitope mapping, binding to PSMGFR N-19 C-5 peptide
PSMGFR N-19 C-5 (SEQ ID NO: 159), sequence (P15941 1129-1149 limits assumed): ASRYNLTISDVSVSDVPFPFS
From the text: as §6, §1

H1975-MUC1*45 cells = experiment: Antibody internalization (pHrodo Deep Red), H1975-MUC1*45; assay type: cell-based, human
Procedure: as §2, §3, §4

breast cancer specimens = experiment: IHC of tissue microarray, breast cancer; assay type: binding, human; settings: 109 specimens, antibodies at 15 μg/mL
From the text: as §7
Of the 109 breast cancer specimens, 56 stained positive with C2, 3C2B1, or both. Twenty-two (22) of the specimens stained robustly with C2 and stained less well or not at all with 3C2B1. The converse, 3C2B1 staining better than C2, was true in only 5 of the 109 specimens. Twenty-nine (29) specimens were stained essentially the same with C2 and 3C2B1 antibody.
as §8

PSMGFR peptide (SEQ ID NO: 1), sequence (P15941 1110-1154): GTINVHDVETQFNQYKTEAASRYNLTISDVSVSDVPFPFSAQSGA

B1: 3C2B1: anti-MUC1* monoclonal antibody that bound to the PSMGFR peptide (antibody, V domains shown)
VH: EVMLVESGGGLVKPGGSLKLSCAASGITFSTYTMSWVRQTPEKRLEWVATISTGGDKTYYSDSVKGRFTISRDNAKNNLYLQMSSLRSEDTALYYCARGTTAMYYYAMDYWGQGTSVTVSS
VL: DIVLTQSPASLAVSLGQRATISCRASKSISTSDYNYIHWYQQKPGQPPKLLIYLASNLESGVPARFSGSGSGTDFTLNIHPVEEEDAATYYCQHSRELPLTFGAGTKLELK
binding to the PSMGFR 45mer peptide [1]: bind | internalization rate compared to C2 [2]: faster | time by which essentially all the cells had internalized the antibody [2]: ≤ 6 h | fraction of cells that had internalized antibody ([2]; 2 hours post incubation): about one third | fraction of cells that had internalized antibody ([2]; by 4 hours): more than a half | effect of MUC1*45 expression on internalization (T47D-MUC1*45 cells; T47D-MUC1*45 vs T47D-wt): inhibited | fraction of cells that internalized detectable antibody (T47D-MUC1*45 cells; T47D-MUC1* cells, after 14 hours): Less than half | binding to N-30 variant PSMGFR peptide [3]: bound | time after which internalization was detectable [4]: 8 h | time at which internalization was nearly complete [4]: 16 h | 3C2B1 > C2 (number of specimens stained better with 3C2B1) (lung cancer specimens): 19 | binding to N-19 C-5 variant PSMGFR peptide [5]: bound | time by which essentially all the cells had internalized the antibody (H1975-MUC1*45 cells; H1975-MUC1*45 cells): 8 h | effect of MUC1*45 expression on internalization rate (H1975-MUC1*45 cells; H1975-MUC1*45 vs H1975-wt): decreased | 3C2B1 > C2 (number of specimens stained better with 3C2B1) (breast cancer specimens): 5
